Source: PMC10397247

Tests used:
Assay in all cases: two-hybrid library CCmax;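 also: natural log of median RNA to DNA barcode read ratio; higher means stronger binding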
4H94-AA = target: T1, 4H94-AA; settings: mean of both orientations
T1 chain: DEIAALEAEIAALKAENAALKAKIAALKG

4H458-AA = target: T2, 4H458-AA; settings: mean of both orientations
T2 chain: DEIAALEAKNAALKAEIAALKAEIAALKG

O11-AA = target: T3, O11-AA; settings: mean of both orientations
T3 chain: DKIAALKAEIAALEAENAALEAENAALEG

4H891-AA = target: T4, 4H891-AA
T4 chain: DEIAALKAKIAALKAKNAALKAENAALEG

4H797-AA = target: T5, 4H797-AA; settings: mean of both orientations
T5 chain: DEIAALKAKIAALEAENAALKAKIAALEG

4H909-AA = target: T6, 4H909-AA; settings: mean of both orientations
T6 chain: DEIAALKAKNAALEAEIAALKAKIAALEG

4H510-AA = target: T7, 4H510-AA; settings: mean of both orientations
T7 chain: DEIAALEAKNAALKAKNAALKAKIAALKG

4H485-AA = target: T8, 4H485-AA; settings: mean of both orientations
T8 chain: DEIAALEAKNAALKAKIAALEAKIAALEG

P5-AA-12HAA-K = target: T9, P5-AA-12HAA-K; settings: mean of both orientations
T9 chain: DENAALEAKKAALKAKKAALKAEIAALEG

4H451-AA = target: T10, 4H451-AA; settings: mean of both orientations
T10 chain: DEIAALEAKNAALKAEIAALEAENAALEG

O14-AA = target: T11, O14-AA; settings: mean of both orientations
T11 chain: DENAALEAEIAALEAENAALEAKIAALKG

4H3905-AA = target: T12, 4H3905-AA; settings: mean of both orientations
T12 chain: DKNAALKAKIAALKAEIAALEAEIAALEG

4H930-AA = target: T13, 4H930-AA; settings: mean of both orientations
T13 chain: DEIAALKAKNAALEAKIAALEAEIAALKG

4H384-AA = target: T14, 4H384-AA; settings: mean of both orientations
T14 chain: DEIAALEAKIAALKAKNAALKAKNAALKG

P5-AA-12HAA-A = target: T15, P5-AA-12HAA-A; settings: mean of both orientations
T15 chain: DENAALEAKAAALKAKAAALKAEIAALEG

4H3697-AA = target: T16, 4H3697-AA; settings: mean of both orientations
T16 chain: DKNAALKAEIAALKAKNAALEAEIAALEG

P5-AA-12HAA-T = target: T17, P5-AA-12HAA-T; settings: mean of both orientations
T17 chain: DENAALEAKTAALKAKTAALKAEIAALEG

4H850-AA = target: T18, 4H850-AA; settings: mean of both orientations
T18 chain: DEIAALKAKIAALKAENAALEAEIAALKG

4H745-AA = target: T19, 4H745-AA; settings: mean of both orientations
T19 chain: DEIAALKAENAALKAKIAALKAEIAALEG

4H4038-AA = target: T20, 4H4038-AA; settings: mean of both orientations
T20 chain: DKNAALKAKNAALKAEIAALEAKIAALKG

P5-AA-12HAA-L = target: T21, P5-AA-12HAA-L; settings: mean of both orientations
T21 chain: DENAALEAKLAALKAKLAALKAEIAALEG

4H629-AA = target: T22, 4H629-AA; settings: mean of both orientations
T22 chain: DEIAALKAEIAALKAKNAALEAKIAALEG

P5-AA-12HAA-D = target: T23, P5-AA-12HAA-D; settings: mean of both orientations
T23 chain: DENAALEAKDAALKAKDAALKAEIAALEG

4H3590-AA = target: T24, 4H3590-AA
T24 chain: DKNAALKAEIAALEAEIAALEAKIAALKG

P5-AA-12HAA-H = target: T25, P5-AA-12HAA-H; settings: mean of both orientations
T25 chain: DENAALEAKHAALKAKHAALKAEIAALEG

P5-AA-12HAA-R = target: T26, P5-AA-12HAA-R; settings: mean of both orientations
T26 chain: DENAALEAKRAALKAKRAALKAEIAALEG

GCN2_T = settings: mean of both orientations
O13-AA = target: T27, O13-AA; settings: mean of both orientations
T27 chain: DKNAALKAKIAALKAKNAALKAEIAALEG

4H3753-AA = target: T28, 4H3753-AA; settings: mean of both orientations
T28 chain: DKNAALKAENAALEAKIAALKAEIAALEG

P5-AA-12HAA-E = target: T29, P5-AA-12HAA-E; settings: mean of both orientations
T29 chain: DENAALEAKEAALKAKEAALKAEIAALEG

P5-AA-12HAA-V = target: T30, P5-AA-12HAA-V; settings: mean of both orientations
T30 chain: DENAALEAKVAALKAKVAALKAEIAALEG

4H_GCN4 = target: 4H_GCN4
P5-AA-1HAA-N = target: T31, P5-AA-1HAA-N; settings: mean of both orientations
T31 chain: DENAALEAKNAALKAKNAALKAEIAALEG

4H_APH = target: T32, 4H_APH; settings: mean of both orientations
T32 chain: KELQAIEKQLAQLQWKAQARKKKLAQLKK

4H3625-AA = target: T33, 4H3625-AA; settings: mean of both orientations
T33 chain: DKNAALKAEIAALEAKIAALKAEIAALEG

P5-AA-12HAA-S = target: T34, P5-AA-12HAA-S; settings: mean of both orientations
T34 chain: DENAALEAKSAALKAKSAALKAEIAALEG

4H_BCR = target: T35, 4H_BCR; settings: mean of both orientations
T35 chain: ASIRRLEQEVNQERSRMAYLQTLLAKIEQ

4H43-AA = target: T36, 4H43-AA; settings: mean of both orientations
T36 chain: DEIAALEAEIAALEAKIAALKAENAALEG

4H710-AA = target: T37, 4H710-AA; settings: mean of both orientations
T37 chain: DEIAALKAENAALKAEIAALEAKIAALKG

4H536-AA = target: T38, 4H536-AA; settings: mean of both orientations
T38 chain: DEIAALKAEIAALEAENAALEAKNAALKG

4H3865-AA = target: T39, 4H3865-AA; settings: mean of both orientations
T39 chain: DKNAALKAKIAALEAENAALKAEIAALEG

4H570-AA = target: T40, 4H570-AA; settings: mean of both orientations
T40 chain: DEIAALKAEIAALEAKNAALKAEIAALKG

P5-AA-12HAA-Y = target: T41, P5-AA-12HAA-Y; settings: mean of both orientations
T41 chain: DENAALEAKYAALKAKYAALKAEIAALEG

Chain of 4H_GCN4 (chain, as listed by the source): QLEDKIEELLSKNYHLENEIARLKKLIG

- interaction score (4H94-AA): -1.15
- interaction score (4H458-AA): 1.13
- interaction score (O11-AA): -0.698
- interaction score (4H891-AA): -0.048
- interaction score (4H797-AA): -1.01
- interaction score (4H909-AA): -1.14
- interaction score (4H510-AA): -0.0505
- interaction score (4H485-AA): 1.8
- interaction score (P5-AA-12HAA-K): 2.23
- interaction score (4H451-AA): -1.08
- interaction score (O14-AA): -1.17
- interaction score (4H3905-AA): 2.01
- interaction score (4H930-AA): -1.4
- interaction score (4H384-AA): 1.26
- interaction score (P5-AA-12HAA-A): 1.75
- interaction score (4H3697-AA): -0.287
- interaction score (P5-AA-12HAA-T): 1.63
- interaction score (4H850-AA): -0.0746
- interaction score (4H745-AA): 1.02
- interaction score (4H4038-AA): -0.327
- interaction score (P5-AA-12HAA-L): 2.42
- interaction score (4H629-AA): -0.923
- interaction score (P5-AA-12HAA-D): -1.25
- interaction score (4H3590-AA): 2.25
- interaction score (P5-AA-12HAA-H): 1.78
- interaction score (P5-AA-12HAA-R): 1.92
- interaction score (GCN2_T): -0.424
- interaction score (O13-AA): 1.33
- interaction score (4H3753-AA): 0.435
- interaction score (P5-AA-12HAA-E): -0.101
- interaction score (P5-AA-12HAA-V): 2.25
- interaction score (4H_GCN4): -1.16
- interaction score (P5-AA-1HAA-N): -0.0553
- interaction score (4H_APH): -0.247
- interaction score (4H3625-AA): 2.07
- interaction score (P5-AA-12HAA-S): 1.88
- interaction score (4H_BCR): -0.0889
- interaction score (4H43-AA): 1.98
- interaction score (4H710-AA): -1.14
- interaction score (4H536-AA): -0.687
- interaction score (4H3865-AA): -1.18
- interaction score (4H570-AA): -0.136
- interaction score (P5-AA-12HAA-Y): 2.53
Binder: DKNAALKAEIAALEAEIAALEAKIAALKG [4H3590-AA]
